Test results reported in PMC5303882, “Structure of the homodimeric androgen receptor ligand-binding domain” (Nature Communications, 2017).

Biological target: T1, Recombinant human androgen receptor ligand-binding domain (AR-LBD, residues 662-919), DHT-bound (human, UniProt P10275 662-919)
T1 construct: also called AR/NR3C4 LBD; liganded AR-LBD; source: recombinant, expressed as a fusion protein with thioredoxin, purified to homogeneity
Experiment: SPR; BIAcore T200, 25 °C; DHT-bound AR-LBD amine-coupled to a CM5 chip at about 6,800 RU, UBA3 peptide as analyte; 50 mM HEPES pH 7.2, 50 mM Li2SO4, 5% glycerol, 1 mM DTT, 5 mM DHT; 1:1 Langmuir model; triplicate
Conditions: both partners purified

Kd: 30.6 ± 0.7 nM
B1: Synthetic UBA3 peptide S59-V72 (LxxLL motif) (peptide)
peptide: STESLQFLLDTCKV
notes: also called UBA3-derived peptide; UBA3 59S-72V peptide; source: synthetic peptide, custom-synthesized at Pepmic
